To fix the notation:
B1: R1-002 (antibody, V domains shown)
VH: EVQLLQSGGGLVQPGGSLRLSCAASGFTFSSYAMSWVRQAPGKGLEWVSYISDDGSLKYYADSVKGRFTISRDNSKNTLYLQMNSLRAEDTAVYYCARHPYWYGGQLDLWGQGTLVTVSS
VL: SYELTQPPSVSVSPGQTASITCSGDSLGSYFVHWYQQKPGQSPVLVIYDDSNRPSGIPERFSGSNSGNTATLTISGTQAMDEADYYCSAFTHNSDVFGGGTKLTVL
notes: VL of AB-001 (AB-001_LC); only the variable regions are written; source: HEK293, transient, purified from conditioned medium (protein A, TMAE, HIC)
B2: R1-005 (antibody, V domains shown)
VH: B1 VH with Q6E, D53N
VL: B1 VL
notes: as for B1
B3: R1-010 (antibody, V domains shown)
VH: B1 VH with Q6E, R98K
VL: B1 VL with N52K
notes: VH of AB-001 (AB-001_HC); only the variable regions are written; source: HEK293, transient, purified from conditioned medium (protein A, TMAE, HIC)
B4: R1-015 (antibody, V domains shown)
VH: B1 VH with Q13K
VL: B1 VL with D95N
notes: only the variable regions are written; source: HEK293, transient, purified from conditioned medium (protein A, TMAE, HIC)
B5: R1-004 (antibody, V domains shown)
VH: B1 VH with Q6E, A23R
VL: B1 VL
notes: as for B1
B6: R1-006 (antibody, V domains shown)
VH: B1 VH with Q6E, Q106R
VL: B1 VL
notes: as for B1
B7: R1-011 (antibody, V domains shown)
VH: B1 VH with Q6E, R98K
VL: B1 VL with D95N
notes: as for B3
B8: R1-018 (antibody, V domains shown)
VH: B1 VH with Q6E, Q106R
VL: B1 VL with T17R
notes: as for B4
B9: R1-014 (antibody, V domains shown)
VH: B1 VH with Q13K
VL: B1 VL with T17R
notes: as for B4
B10: R2-004 (antibody, V domains shown)
VH: B1 VH with Q13K
VL: B1 VL with E3V, S13A, Q16K, S19R, Y48H, N52K
notes: as the VH of m20 (R2-001_HC); as the VL of m20 (R2-001_LC) with Y49H (Kabat); only the variable regions are written; source: HEK293, transient, purified from conditioned medium (protein A, TMAE, HIC)
B11: R1-013 (antibody, V domains shown)
VH: B1 VH
VL: B1 VL with T17R
notes: as for B4
B12: R1-007 (antibody, V domains shown)
VH: B1 VH with Q13K
VL: B1 VL
notes: as for B1
B13: R1-012 (antibody, V domains shown)
VH: B1 VH with Q13K
VL: B1 VL with E3V
notes: Kabat position; only the variable regions are written; source: HEK293, transient, purified from conditioned medium (protein A, TMAE, HIC)
B14: R1-003 (antibody, V domains shown)
VH: B1 VH with Q6E, Q13K
VL: B1 VL
notes: as for B1
B15: R1-017 (antibody, V domains shown)
VH: B1 VH with Q6E, Q13K
VL: B1 VL with T17R
notes: as for B4
B16: R1-008 (antibody, V domains shown)
VH: B1 VH with Q6E, R98K
VL: B1 VL with E3V
notes: VH of AB-001 (AB-001_HC); Kabat position; only the variable regions are written; source: HEK293, transient, purified from conditioned medium (protein A, TMAE, HIC)
B17: R1-009 (antibody, V domains shown)
VH: B1 VH with Q6E, R98K
VL: B1 VL with T17R
notes: as for B3

koff data for 17 molecules are collected here from publication PMC7205207, “Modeling and mitigation of high-concentration antibody viscosity through structure-based computer-aided protein design” (PLoS ONE, 2020).

Where a chain is given by its changes, count along the chain named. Names and notes keep the numbering of the source.

T1 sequence (P01127 82-190): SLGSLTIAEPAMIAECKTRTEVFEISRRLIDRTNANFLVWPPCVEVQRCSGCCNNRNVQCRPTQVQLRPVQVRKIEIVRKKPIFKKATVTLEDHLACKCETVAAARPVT

This test has as its target T1, human PDGF-BB (platelet derived growth factor B homodimer) (human, UniProt P01127).
T1 construct: Platelet derived growth factor B, human, homodimer, bought from PeproTech; the printed catalogue number may stand for 100-14B; source: bought: PeproTech, Catalog 100-148
As to the kind of experiment: SPR; Biacore T200, off-rate screen; antibody captured (~70 to 100 RU) by anti-human IgG amine-coupled to a CM5 chip; human PDGF-BB injected at a single 2.5 nM for 170 s, dissociation 300 s; HBS-EP+ N (10 mM HEPES, 500 mM NaCl, 3 mM EDTA, 0.05% Tween20, pH 7.4); 25 C. Conditions: both partners purified. Background: In SPR one partner is held on a chip, and binding of the other changes the refractive index at the surface.
In the case of B1, the koff (in general, the first-order rate constant of dissociation) was found to be 0.00038 s⁻¹.
Under B2 stands 0.000381 s⁻¹; under B3, 0.000372 s⁻¹.
For B4, the koff amounted to 0.000752 s⁻¹.
Next, B5: 0.000258 s⁻¹.
Next, B6: 0.000314 s⁻¹; B7: 0.00086 s⁻¹; B8: 0.000419 s⁻¹.
Next, B9: 0.000405 s⁻¹.
In turn, B10 registered a koff of 0.000439 s⁻¹.
Under B11 stands 0.000297 s⁻¹.
Molecule B12 returned a koff of 0.000282 s⁻¹.
Under B13 stands 0.000304 s⁻¹; under B14, 0.000443 s⁻¹.
As to B15, the koff is 0.000471 s⁻¹.
Next, B16: 0.000533 s⁻¹.
Next, B17: 0.000393 s⁻¹.
